Measured values: the supplement of paper PMC10724198
± gives the standard deviation of the averaged measurements.

Assays:
[1] = system: Saccharomyces cerevisiae; experiment: protein stability index of tFT-peptide fusion (C-terminal peptide) (PSI (0-1 scale)); higher = more stable (slower turnover)
Procedure: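 MPS profiling in S. cerevisiae of the tFT-X12 degron library: putative degron peptides plus stable controls, 12 aa, fused to the C-terminus of a sfGFP-mCherry timer. Cells are FACS-sorted into 8 mCherry/sfGFP bins and deep-sequenced. PSI runs from 0 (unstable) to 1 (stable). Backgrounds are wild type, das1Δ and doa10Δ at 30 °C, and wild type, das1Δ, cdc34-1 and cdc53-1 at 37 °C; 2-3 technical replicates each.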

[2] = system: Saccharomyces cerevisiae; experiment: as above; settings: genetic background: wild type; temperature: 30 C
[3] = genetic background: cdc34-1, temperature: 37 C
[4] = genetic background: cdc53-1, temperature: 37 C
[5] = genetic background: das1 deletion, temperature: 30 C
[6] = genetic background: das1 deletion, temperature: 37 C
[7] = genetic background: doa10 deletion, temperature: 30 C
[8] = genetic background: wild type, temperature: 30 C
[9] = genetic background: wild type, temperature: 37 C
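Further: PSI is a weighted mean of sequencing reads over stability bins, variants kept only with over 10 reads, mCherry proximal and sfGFP distal, peptide attached via GGGS linker.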

| Sequence | protein stability index [1, 3] | protein stability index [1, 4] | protein stability index [1, 5] | protein stability index [1, 6] | protein stability index [1, 7] | protein stability index [1, 8] | protein stability index [1, 9] | protein stability index [2] |
| --- | --- | --- | --- | --- | --- | --- | --- | --- |
| PALVVALLASVL | 0.584 ± 0.018 | 0.646 ± 0.039 | 0.505 ± 0.022 | 0.60007 ± 0.00036 | 0.347 ± 0.015 | 0.386 ± 0.029 | 0.504 ± 0.0057 | 0.485 ± 0.011 |
| GLLAEPALLLLS | 0.661 ± 0.06 | 0.699 ± 0.027 | 0.618 ± 0.0073 | 0.724 ± 0.023 | 0.604 ± 0.037 | 0.62 ± 0.025 | 0.6881 ± 0.0066 | 0.499 ± 0.1 |
| GVLIFLSFQPIA | 0.539 ± 0.021 | 0.617 ± 0.023 | 0.429 ± 0.03 | 0.599 ± 0.0088 | 0.3783 ± 0.0017 | 0.414 ± 0.013 | 0.556 ± 0.0093 | 0.431 ± 0.037 |
| VFFVLAVVGADA | 0.383 ± 0.044 | 0.461 ± 0.024 | 0.331 ± 0.033 | 0.551 ± 0.018 | 0.268 ± 0.0086 | 0.306 ± 0.02 | 0.467 ± 0.053 | 0.397 ± 0.045 |
| GFGDKVPWRWVI | 0.606 ± 0.037 | 0.759 ± 0.022 | 0.657 ± 0.026 | 0.7816 ± 0.0045 | 0.124 ± 0.01 | 0.135 ± 0.0096 | 0.244 ± 0.0061 | 0.227 ± 0.045 |
| FLLPWLRPVFFF | 0.522 ± 0.056 | 0.607 ± 0.055 | 0.567 ± 0.013 | 0.69 ± 0.0074 | 0.219 ± 0.0046 | 0.218 ± 0.024 | 0.369 ± 0.029 | 0.293 ± 0.011 |
| LFGFILLGVSCC | 0.0506 ± 0.0034 | 0.0719 ± 0.0073 | 0.164 ± 0.029 | 0.22 ± 0.0022 | 0.156 ± 0.0021 | 0.168 ± 0.024 | 0.193 ± 0.015 | 0.211 ± 0.029 |
| DGYLFKGIWFFV | 0.645 ± 0.011 | 0.7326 ± 0.0039 | 0.617 ± 0.033 | 0.738 ± 0.036 | 0.145 ± 0.0041 | 0.163 ± 0.022 | 0.349 ± 0.0098 | 0.189 ± 0.031 |
| FVSHRRFSLFLY | 0.584 ± 0.038 | 0.691 ± 0.011 | 0.602 ± 0.019 | 0.726 ± 0.046 | 0.124 ± 0.0019 | 0.143 ± 0.021 | 0.203 ± 0.019 | 0.209 ± 0.02 |
| KIILMCYTLITL | 0.255 ± 0.033 | 0.347 ± 0.041 | 0.228 ± 0.039 | 0.43 ± 0.018 | 0.2009 ± 0.0016 | 0.225 ± 0.017 | 0.413 ± 0.04 | 0.264 ± 0.015 |
| NYCVFLSYLLFC | 0.362 ± 0.044 | 0.424 ± 0.025 | 0.318 ± 0.027 | 0.502 ± 0.0072 | 0.205 ± 0.012 | 0.215 ± 0.033 | 0.3961 ± 0.0034 | 0.301 ± 0.0096 |
| VSLIYKTIKNRV | 0.6704 ± 0.0033 | 0.732 ± 0.0082 | 0.595 ± 0.03 | 0.726 ± 0.063 | 0.396 ± 0.049 | 0.397 ± 0.015 | 0.6009 ± 0.001 | 0.517 ± 0.057 |
| FWHGRCPGLYLV | 0.583 ± 0.11 | 0.639 ± 0.018 | 0.607 ± 0.012 | 0.7263 ± 0.0042 | 0.163 ± 0.009 | 0.169 ± 0.03 | 0.304 ± 0.005 | 0.27 ± 0.0087 |
| APPPLFLIVLHL | 0.469 ± 0.0062 | 0.565 ± 0.0062 | 0.399 ± 0.036 | 0.604 ± 0.028 | 0.324 ± 0.019 | 0.3 ± 0.011 | 0.521 ± 0.026 | 0.424 ± 0.018 |
| FERVEYEVLGIG | 0.35 ± 0.0065 | 0.441 ± 0.037 | 0.394 ± 0.0079 | 0.449 ± 0.017 | 0.395 ± 0.012 | 0.38 ± 0.017 | 0.44 ± 0.021 | 0.415 ± 0.014 |
| WLLSFLRFLVLR | 0.124 ± 0.015 | 0.0923 ± 0.027 | 0.322 ± 0.045 | 0.308 ± 0.02 | 0.8 ± 0.014 | 0.298 ± 0.026 | 0.32 ± 0.021 | 0.393 ± 0.029 |
| CLCYFLFYFLFV | 0.49 ± 0.0055 | 0.513 ± 0.026 | 0.436 ± 0.033 | 0.572 ± 0.0063 | 0.465 ± 0.023 | 0.442 ± 0.029 | 0.543 ± 0.028 | 0.501 ± 0.043 |

| Sequence | protein stability index [1, 3] | protein stability index [1, 4] | protein stability index [1, 5] | protein stability index [1, 6] | protein stability index [1, 7] | protein stability index [1, 8] | protein stability index [1, 9] | protein stability index [2] |
| --- | --- | --- | --- | --- | --- | --- | --- | --- |
| KIKQIKINNKIN | 0.43 ± 0.0033 | 0.654 ± 0.13 | 0.703 ± 0.026 | 0.758 ± 0.043 | 0.0896 ± 0.034 | 0.092 ± 0.032 | 0.145 ± 0.04 | 0.157 ± 0.0073 |
| ACGAGFIILLGL | 0.641 ± 0.086 | 0.613 ± 0.014 | 0.524 ± 0.022 | 0.65 ± 0.015 | 0.571 ± 0.033 | 0.522 ± 0.019 | 0.633 ± 0.008 | 0.535 ± 0.077 |
| AFRFLAVCVGCG | 0.144 ± 0.009 | 0.158 ± 0.013 | 0.218 ± 0.02 | 0.291 ± 0.0069 | 0.168 ± 0.0081 | 0.205 ± 0.018 | 0.24 ± 0.0071 | 0.263 ± 0.068 |
| LGSCSLIYRKFS | 0.597 ± 0.026 | 0.728 ± 0.017 | 0.639 ± 0.02 | 0.703 ± 0.029 | 0.0934 ± 0.0075 | 0.0958 ± 0.017 | 0.172 ± 0.021 | 0.204 ± 0.0059 |
| CHFLLHYVFLLS | 0.3792 ± 0.0019 | 0.456 ± 0.0076 | 0.306 ± 0.037 | 0.523 ± 0.0055 | 0.241 ± 0.0065 | 0.267 ± 0.024 | 0.462 ± 0.015 | 0.417 ± 0.017 |
| GGSLWLVHLKTI | 0.604 ± 0.059 | 0.761 ± 0.038 | 0.633 ± 0.035 | 0.718 ± 0.025 | 0.118 ± 0.026 | 0.158 ± 0.011 | 0.275 ± 0.082 | 0.181 ± 0.044 |
| VFSLFLVLNYPF | 0.302 ± 0.046 | 0.296 ± 0.043 | 0.373 ± 0.021 | 0.495 ± 0.01 | 0.466 ± 0.021 | 0.362 ± 0.012 | 0.432 ± 0.025 | 0.446 ± 0.037 |
| PPSLPPLISFSP | 0.7 ± 0.039 | 0.7808 ± 0.0052 | 0.656 ± 0.015 | 0.7661 ± 0.0014 | 0.669 ± 0.011 | 0.6624 ± 0.0039 | 0.7407 ± 0.0059 | 0.729 ± 0.03 |
| CLNPCVRWDGHV | 0.739 ± 0.065 | 0.7589 ± 0.0016 | 0.651 ± 0.039 | 0.77 ± 0.0062 | 0.661 ± 0.05 | 0.687 ± 0.028 | 0.732 ± 0.011 | 0.708 ± 0.0077 |
| NMVSMVVVIFGV | 0.248 ± 0.014 | 0.37 ± 0.1 | 0.23 ± 0.039 | 0.437 ± 0.024 | 0.196 ± 0.021 | 0.24 ± 0.02 | 0.386 ± 0.016 | 0.275 ± 0.015 |
| AYCGGRNKCTTE | 0.689 ± 0.015 | 0.711 ± 0.021 | 0.644 ± 0.034 | 0.744 ± 0.013 | 0.659 ± 0.014 | 0.643 ± 0.011 | 0.712 ± 0.0078 | 0.701 ± 0.0081 |
| FKYRVPLVGVVK | 0.30503 ± 3.5e-05 | 0.317 ± 0.033 | 0.245 ± 0.029 | 0.43316 ± 0.00012 | 0.203 ± 0.018 | 0.25 ± 0.02 | 0.3897 ± 0.00038 | 0.347 ± 0.0072 |
| VMLFYVGSGVVS | 0.654 ± 0.053 | 0.688 ± 0.038 | 0.54 ± 0.032 | 0.685 ± 0.016 | 0.545 ± 0.023 | 0.556 ± 0.02 | 0.671 ± 0.014 | 0.485 ± 0.11 |
| TFRVLFSVALLV | 0.172 ± 0.0042 | 0.216 ± 0.0069 | 0.259 ± 0.024 | 0.3436 ± 0.0022 | 0.1804 ± 0.00079 | 0.182 ± 0.021 | 0.2319 ± 0.0022 | 0.212 ± 0.086 |
| LVDPFAALRHVV | 0.624 ± 0.026 | 0.768 ± 0.0078 | 0.709 ± 0.016 | 0.71 ± 0.013 | 0.15 ± 0.014 | 0.173 ± 0.024 | 0.3825 ± 0.0015 | 0.246 ± 0.0088 |
| FVLWLIYVDLFF | 0.214 ± 0.039 | 0.234 ± 0.013 | 0.196 ± 0.048 | 0.342 ± 0.015 | 0.181 ± 0.019 | 0.22 ± 0.033 | 0.339 ± 0.041 | 0.287 ± 0.094 |
